Data set [1] deals with D71N/R72E mutant of BIR1 (1-105) of XIAP (human) (UniProt P98170). Put plainly: MALDI-TOF mass spectrometry; oxidised D71N/R72E BIR1; covalent (disulfide-linked) dimer; compared with a sample treated with DTT.
The target is the same in data set [2]. As to the kind of experiment: SEC; oxidised protein (C12 disulfide), analytical gel filtration on Superdex 75 10/200 GL, 20 mM Bis-Tris pH 6.5. Background: In gel filtration, larger molecules generally elute earlier.
Data set [3] concerns the molecule itself. As to the kind of experiment: NMR 15N relaxation (R2/R1, rotational correlation time); reduced protein, about 0.3 mM, 20 mM Bis-Tris pH 6.5, 298 K.

The term stoichiometry N denotes the number of molecules, sites or subunits per partner or assembly. In the case of “D71N/R72E mutant of BIR1 (1-105) of XIAP (from UniProt P98170 1-105) (domain or fragment)”, the stoichiometry N in data set [1] and in data set [2] was 2 throughout.

B1: Wild-type BIR1 (1-105 aa), first BIR domain of XIAP (domain or fragment, human, UniProt P98170 1-105, looked up)
chain: MTFNSFEGSKTCVPADINKEEEFVEEFNRLKTFANFPSGSPVSASTLARAGFLYTGEGDTVRCFSCHAAVDRWQYGDSAVGRHRKVSPNCRFINGFYLENSATQS
notes: 15N- or 15N,13C-labelled for NMR; cloned into pET-3a; In the oxidised state C12 of the two subunits form a disulfide bond; also called WT BIR1
Consider B1, for which the “stoichiometry N” value in data set [3] amounted to 2.

The values are drawn from PMC5709467, “Solution structure and interaction with copper in vitro and in living cells of the first BIR domain of XIAP” (Scientific Reports, 2017).
